Source: patent publication US20250277048A1 (Regeneron, published 2025)
Each block holds one binder with its values, some of them ahead of it.

Columns and labels:
[1] = target: T1, mouse CD40 extracellular domain expressed with a C-terminal myc-myc-hexahistidine tag (mouse); test: SPR Biacore 4000, mAb captured, 37C
T1 construct: also called mCD40-MMH; REGN3098
T1 chain: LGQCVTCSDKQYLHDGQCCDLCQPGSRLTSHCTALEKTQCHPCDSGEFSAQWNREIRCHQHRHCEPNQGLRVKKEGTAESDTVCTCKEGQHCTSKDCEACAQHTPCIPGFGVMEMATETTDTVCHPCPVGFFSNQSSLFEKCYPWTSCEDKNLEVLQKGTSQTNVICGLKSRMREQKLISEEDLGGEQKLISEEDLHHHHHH
Method: (§1) The equilibrium dissociation constants (KD) for anti-CD40 bivalent and bispecific monoclonal antibodies (mAbs) were determined using a real-time surface plasmon resonance (SPR)-based Biacore 4000 biosensor. All binding studies were performed in 10 mM HEPES, 150 mM NaCl, 3 mM EDTA, and 0.05% v/v surfactant Tween-20, pH 7.4 (HBS-ET) running buffer at 25° C. and 37° C. The Biacore CM5 sensor surface was first derivatized by amine coupling with a monoclonal mouse anti-human Fc antibody (REGN2567) to capture anti-CD40 bivalent parental and anti-CD40×CD40 bispecific antibodies. Different concentrations of CD40 reagents, human CD40 extracellular domain expressed with a C-terminal myc-myc-hexahistidine tag (SEQ ID NO: 1114) (“hCD40-MMH”; REGN3094; SEQ ID NO: 53), monkey CD40 extracellular domain expressed with a C-terminal myc-myc-hexahistidine tag (SEQ ID NO: 1114) (“mfCD40-MMH”; REGN3097; SEQ ID NO: 54), and mouse CD40 extracellular domain expressed with a C-terminal myc-myc-hexahistidine tag (SEQ ID NO: 1114) (“mCD40-MMH”; REGN3098; SEQ ID NO: 55), at concentrations ranging from 3.7 nM to 100 nM or 3.3 nM to 90 nM in a series of 3-fold dilutions prepared in HBS-ET running buffer were injected at a flow rate of 30 μL/min for 4 minutes or 50 μL/min for 5 minutes. The dissociation of different CD40 reagents bound to anti-CD40 bivalent parental and anti-CD40×CD40 bispecific antibodies was monitored for 10 minutes in HBS-ET running buffer. At the end of each cycle, the anti-CD40 bivalent parental and anti-CD40×CD40 bispecific antibodies capture surface was regenerated using a 12 sec injection of 20 mM H₃PO₄.
(§2) The association rate (ka) and dissociation rate (kd) were determined by fitting the real-time binding sensorgrams to a 1:1 binding model with mass transport limitation using Scrubber 2.0c curve-fitting software. Binding dissociation equilibrium constant (KD) and dissociative half-life (t_{1/2}) were calculated from the kinetic rates as: KD(M)=kd/kₐ, and t_{1/2} (min)=[ln(2)/(60*kd)].

[2] = target: T2, human CD40 extracellular domain expressed with a C-terminal myc-myc-hexahistidine tag (human); test: SPR Biacore 4000, mAb captured, 37C
T2 construct: also called hCD40-MMH; hCD40-mmH
Method: as §1, §2

[3] = target: T2, human CD40 extracellular domain …; test: SPR Biacore 4000, mAb captured, 25C; 25° C.
Method: The equilibrium dissociation constants (KD) for anti-CD40 bivalent and bispecific monoclonal antibodies (mAbs) were determined using a real-time surface plasmon resonance (SPR)-based Biacore 4000 biosensor. All binding studies were performed in 10 mM HEPES, 150 mM NaCl, 3 mM EDTA, and 0.05% v/v surfactant Tween-20, pH 7.4 (HBS-ET) running buffer at 25° C. and 37° C. The Biacore CM5 sensor surface was first derivatized by amine coupling with a monoclonal mouse anti-human Fc antibody (REGN2567) to capture anti-CD40 bivalent parental and anti-CD40×CD40 bispecific antibodies. […] The dissociation of different CD40 reagents bound to anti-CD40 bivalent parental and anti-CD40×CD40 bispecific antibodies was monitored for 10 minutes in HBS-ET running buffer. […]
as §2

[4] = target: T3, monkey CD40 extracellular domain expressed with a C-terminal myc-myc-hexahistidine tag (monkey); test: SPR Biacore 4000, mAb captured, 37C
T3 construct: also called mfCD40-MMH; REGN3097
T3 chain: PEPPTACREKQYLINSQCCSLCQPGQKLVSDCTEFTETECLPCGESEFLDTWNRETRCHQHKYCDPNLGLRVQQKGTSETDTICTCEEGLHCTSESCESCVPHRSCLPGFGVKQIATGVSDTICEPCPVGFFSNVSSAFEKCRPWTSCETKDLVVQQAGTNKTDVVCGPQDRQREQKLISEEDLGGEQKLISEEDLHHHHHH
Method: as §1, §2

[5] = target: T4, human CD40 (hCD40) expressed on cells (human, UniProt P25942 21-277); test: cell-based or functional assay
T4 sequence (P25942 21-277): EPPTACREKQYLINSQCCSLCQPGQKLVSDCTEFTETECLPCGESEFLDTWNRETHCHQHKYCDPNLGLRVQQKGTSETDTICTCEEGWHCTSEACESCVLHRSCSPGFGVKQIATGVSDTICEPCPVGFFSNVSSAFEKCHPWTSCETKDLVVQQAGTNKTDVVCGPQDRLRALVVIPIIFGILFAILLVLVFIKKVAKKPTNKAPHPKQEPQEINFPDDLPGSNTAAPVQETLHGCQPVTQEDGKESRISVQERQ

[6] = target: T4, human CD40 (hCD40) expressed on cells; test: cell-based or functional assay; remark: listed apart in the source
[7] = target: T4, human CD40 (hCD40) expressed on cells; test: cell-based or functional assay; remark: listed apart in the source

B3: 21520P2 (antibody, human IgG4 S228P, kappa, V domains shown)
VH: EVQLVESGGGLVQPGGSLRLSCAASGFTFGSYGMAWVRQAPGKGLEWVSAISGSGDYTNYADSVKRRFTISRDNSKNTLYLQMSSLRAEDTAVYYCAKEKTGTTGYLYSGMDVWGQGTTVTVSS
VL: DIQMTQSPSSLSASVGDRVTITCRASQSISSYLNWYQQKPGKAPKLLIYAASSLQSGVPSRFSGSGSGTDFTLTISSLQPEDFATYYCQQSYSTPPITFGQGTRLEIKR
notes: parental bivalent anti-CD40 mAb; common light chain; also called H4sH21520P2
100 nM Ag Bound [1]: 0.2 RU
100 nM Ag Bound [2]: 67.2 RU
Kd [2]: 69.9 nM
koff [2]: 0.0803 s⁻¹
kon [2]: 1.15e+06 M⁻¹ s⁻¹
t1/2 [2]: 0.1 min

B4: REGN16431 (bispecific antibody, human IgG4 S228P, kappa)
heavy 1: QLQLQESGPGLVRPSETLSLTCSVSGASMNTNNYYWGWIRQPPGKGLEWIGSGYYNGNTYYNPSLKSRVTISVDTSKNQFSLKLNSVTAADTAVYYCARQTPPRIIGSPNIWGQGTMVTVSSASTKGPSVFPLAPCSRSTSESTAALGCLVKDYFPEPVTVSWNSGALTSGVHTFPAVLQSSGLYSLSSVVTVPSSSLGTKTYTCNVDHKPSNTKVDKRVESKYGPPCPPCPAPPVAGPSVFLFPPKPKDTLMISRTPEVTCVVVDVSQEDPEVQFNWYVDGVEVHNAKTKPREEQFNSTYRVVSVLTVLHQDWLNGKEYKCKVSNKGLPSSIEKTISKAKGQPREPQVYTLPPSQEEMTKNQVSLTCLVKGFYPSDIAVEWESNGQPENNYKTTPPVLDSDGSFFLYSRLTVDKSRWQEGNVFSCSVMHEALHNHYTQKSLSLSLGK
heavy 2: EVQLVESGGGLVQPGGSLRLSCAASGFTFGSYGMAWVRQAPGKGLEWVSAISGSGDYTNYADSVKRRFTISRDNSKNTLYLQMSSLRAEDTAVYYCAKEKTGTTGYLYSGMDVWGQGTTVTVSSASTKGPSVFPLAPCSRSTSESTAALGCLVKDYFPEPVTVSWNSGALTSGVHTFPAVLQSSGLYSLSSVVTVPSSSLGTKTYTCNVDHKPSNTKVDKRVESKYGPPCPPCPAPPVAGPSVFLFPPKPKDTLMISRTPEVTCVVVDVSQEDPEVQFNWYVDGVEVHNAKTKPREEQFNSTYRVVSVLTVLHQDWLNGKEYKCKVSNKGLPSSIEKTISKAKGQPREPQVYTLPPSQEEMTKNQVSLTCLVKGFYPSDIAVEWESNGQPENNYKTTPPVLDSDGSFFLYSRLTVDKSRWQEGNVFSCSVMHEALHNRFTQKSLSLSPGK
light: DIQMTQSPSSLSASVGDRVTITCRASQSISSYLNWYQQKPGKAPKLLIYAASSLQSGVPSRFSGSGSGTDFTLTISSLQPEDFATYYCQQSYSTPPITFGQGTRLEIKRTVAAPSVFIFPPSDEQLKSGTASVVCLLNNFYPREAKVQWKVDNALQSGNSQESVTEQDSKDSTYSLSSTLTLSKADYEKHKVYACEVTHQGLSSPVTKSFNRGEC
notes: D1 arm from 21519P2, D2 arm from 21520P2, common light chain; also called CD40xCD40 (21519 x 21520)
% max blockade relative to no mAb, IL-10, donor 1 [5]: 80.7%
% max blockade relative to no mAb, IL-10, donor 2 [5]: 86.9%
% max blockade relative to no mAb, IL-10, donor 3 [5]: 89.3%
100 nM Ag Bound [2]: 61.2 RU
Kd [2]: 0.101 nM
koff [2]: 0.000149 s⁻¹
kon [2]: 1.47e+06 M⁻¹ s⁻¹
t1/2 [2]: 77.5 min
% max blockade relative to no mAb, IL-6, donor 1 [6]: 84%
% max blockade relative to no mAb, IL-6, donor 2 [6]: 92.7%
% max blockade relative to no mAb, IL-6, donor 3 [6]: 92.7%
% max blockade relative to no mAb, TNFa, donor 1 [7]: 44.7%
% max blockade relative to no mAb, TNFa, donor 2 [7]: 74.1%
% max blockade relative to no mAb, TNFa, donor 3 [7]: 70.4%

Continued, values first:

100 nM Ag Bound [1]: 1.6 RU
100 nM Ag Bound [2]: 105 RU
Kd [2]: 19.4 nM
koff [2]: 0.0123 s⁻¹
kon [2]: 635000 M⁻¹ s⁻¹
t1/2 [2]: 0.9 min
kon [3]: 385000 M⁻¹ s⁻¹
B1: 21519P2 (antibody, human IgG4 S228P, kappa, V domains shown)
VH: QLQLQESGPGLVRPSETLSLTCSVSGASMNTNNYYWGWIRQPPGKGLEWIGSGYYNGNTYYNPSLKSRVTISVDTSKNQFSLKLNSVTAADTAVYYCARQTPPRIIGSPNIWGQGTMVTVSS
VL: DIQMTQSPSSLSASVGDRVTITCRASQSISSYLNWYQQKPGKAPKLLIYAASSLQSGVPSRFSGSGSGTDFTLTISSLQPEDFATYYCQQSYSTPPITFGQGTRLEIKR
notes: parental bivalent anti-CD40 mAb; common light chain; also called H4sH21519P2

100 nM Ag Bound [1]: 0.2 RU
100 nM Ag Bound [2]: 66.5 RU
Kd [2]: 6 nM
koff [2]: 0.00372 s⁻¹
kon [2]: 620000 M⁻¹ s⁻¹
t1/2 [2]: 3.1 min
Kd [4]: 3.16 nM
koff [4]: 0.00333 s⁻¹
kon [4]: 1.05e+06 M⁻¹ s⁻¹
t1/2 [4]: 3.5 min
B2: 30027P2 (antibody, human IgG4 S228P, kappa, V domains shown)
VH: EVQLVESGGGLVQPGGSLRLSCAASGFTFSSYAMNWVRQAPGKGLEWVSIISGTIGKTYYADSVKGRFTISRDNSKNTLYLQMNSLRGEDTAVYYCAKDTERDITGSPFDYWGQGTLVTVSS
VL: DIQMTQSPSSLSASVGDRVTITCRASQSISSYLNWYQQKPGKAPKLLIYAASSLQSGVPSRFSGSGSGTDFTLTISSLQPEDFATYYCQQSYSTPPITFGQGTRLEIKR
notes: parental bivalent anti-CD40 mAb; common light chain; also called H4sH30027P2

% max blockade relative to no mAb, IL-10, donor 1 [5]: 81.5%
% max blockade relative to no mAb, IL-10, donor 2 [5]: 94.5%
% max blockade relative to no mAb, IL-10, donor 3 [5]: 90.6%
100 nM Ag Bound [2]: 56.6 RU
Kd [2]: 0.163 nM
koff [2]: 0.000125 s⁻¹
kon [2]: 769000 M⁻¹ s⁻¹
t1/2 [2]: 92.3 min
% max blockade relative to no mAb, IL-6, donor 1 [6]: 83.5%
% max blockade relative to no mAb, IL-6, donor 2 [6]: 92%
% max blockade relative to no mAb, IL-6, donor 3 [6]: 92%
% max blockade relative to no mAb, TNFa, donor 1 [7]: 53.5%
% max blockade relative to no mAb, TNFa, donor 2 [7]: 68.4%
% max blockade relative to no mAb, TNFa, donor 3 [7]: 69.1%
B5: REGN16432 (bispecific antibody, human IgG4 S228P, kappa)
heavy 1: EVQLVESGGGLVQPGGSLRLSCAASGFTFSSYAMNWVRQAPGKGLEWVSIISGTIGKTYYADSVKGRFTISRDNSKNTLYLQMNSLRGEDTAVYYCAKDTERDITGSPFDYWGQGTLVTVSSASTKGPSVFPLAPCSRSTSESTAALGCLVKDYFPEPVTVSWNSGALTSGVHTFPAVLQSSGLYSLSSVVTVPSSSLGTKTYTCNVDHKPSNTKVDKRVESKYGPPCPPCPAPPVAGPSVFLFPPKPKDTLMISRTPEVTCVVVDVSQEDPEVQFNWYVDGVEVHNAKTKPREEQFNSTYRVVSVLTVLHQDWLNGKEYKCKVSNKGLPSSIEKTISKAKGQPREPQVYTLPPSQEEMTKNQVSLTCLVKGFYPSDIAVEWESNGQPENNYKTTPPVLDSDGSFFLYSRLTVDKSRWQEGNVFSCSVMHEALHNHYTQKSLSLSLGK
heavy 2: B4 heavy 2
light: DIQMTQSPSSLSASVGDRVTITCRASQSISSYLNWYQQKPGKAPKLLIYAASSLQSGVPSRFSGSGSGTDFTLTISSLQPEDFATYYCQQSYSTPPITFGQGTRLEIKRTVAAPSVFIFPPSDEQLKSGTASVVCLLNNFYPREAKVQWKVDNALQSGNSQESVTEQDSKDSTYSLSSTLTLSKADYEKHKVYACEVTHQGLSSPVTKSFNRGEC
notes: D1 arm from 30027P2, D2 arm from 21520P2, common light chain; also called CD40xCD40 (30027 x 21520)
